T1: IKK2 (HA epitope-tagged, expressed from pHA-IKK2), O14920
T1 chain: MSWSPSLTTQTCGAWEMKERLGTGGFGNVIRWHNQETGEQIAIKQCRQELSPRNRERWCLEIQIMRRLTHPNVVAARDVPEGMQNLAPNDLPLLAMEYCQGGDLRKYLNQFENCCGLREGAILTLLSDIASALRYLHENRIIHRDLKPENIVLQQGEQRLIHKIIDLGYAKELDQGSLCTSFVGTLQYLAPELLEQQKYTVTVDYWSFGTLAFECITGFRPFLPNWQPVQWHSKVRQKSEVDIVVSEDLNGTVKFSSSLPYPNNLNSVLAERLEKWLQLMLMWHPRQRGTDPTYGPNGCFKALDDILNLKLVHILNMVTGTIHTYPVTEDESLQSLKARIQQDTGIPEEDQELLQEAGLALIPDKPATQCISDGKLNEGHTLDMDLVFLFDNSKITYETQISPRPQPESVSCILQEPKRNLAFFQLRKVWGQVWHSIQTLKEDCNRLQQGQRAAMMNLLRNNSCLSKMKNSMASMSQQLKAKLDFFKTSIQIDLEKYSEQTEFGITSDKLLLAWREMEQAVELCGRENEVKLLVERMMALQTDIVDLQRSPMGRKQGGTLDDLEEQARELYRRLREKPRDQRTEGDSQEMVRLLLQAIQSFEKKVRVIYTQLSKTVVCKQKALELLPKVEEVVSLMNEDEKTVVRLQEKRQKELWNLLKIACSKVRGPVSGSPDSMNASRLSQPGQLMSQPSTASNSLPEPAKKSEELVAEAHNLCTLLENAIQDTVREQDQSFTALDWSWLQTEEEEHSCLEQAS

T2: Receptor Interacting Protein RIP (UniProt Q13546 1-671, limits assumed)
T2 sequence (looked up): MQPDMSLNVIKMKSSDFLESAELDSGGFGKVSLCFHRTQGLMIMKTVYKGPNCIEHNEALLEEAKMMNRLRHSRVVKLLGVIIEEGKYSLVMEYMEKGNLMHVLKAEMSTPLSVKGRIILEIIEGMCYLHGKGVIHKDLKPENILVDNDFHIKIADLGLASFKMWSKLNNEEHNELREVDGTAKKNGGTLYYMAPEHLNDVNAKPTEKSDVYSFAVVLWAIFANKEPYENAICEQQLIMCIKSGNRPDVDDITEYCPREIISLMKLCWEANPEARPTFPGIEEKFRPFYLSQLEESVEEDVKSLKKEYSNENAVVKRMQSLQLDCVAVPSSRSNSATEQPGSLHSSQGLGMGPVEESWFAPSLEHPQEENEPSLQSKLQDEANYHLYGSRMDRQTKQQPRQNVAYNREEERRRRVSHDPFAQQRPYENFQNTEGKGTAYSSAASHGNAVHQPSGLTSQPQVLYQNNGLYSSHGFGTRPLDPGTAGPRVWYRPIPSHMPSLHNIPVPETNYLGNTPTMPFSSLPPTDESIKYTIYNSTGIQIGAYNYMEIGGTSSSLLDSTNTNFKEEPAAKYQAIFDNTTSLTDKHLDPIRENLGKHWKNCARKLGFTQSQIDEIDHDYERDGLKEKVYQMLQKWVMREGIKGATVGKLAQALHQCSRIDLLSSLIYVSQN

T3: TNF Receptor Associated Factor 2 TRAF2 (UniProt Q12933 1-501, limits assumed)
T3 sequence (looked up): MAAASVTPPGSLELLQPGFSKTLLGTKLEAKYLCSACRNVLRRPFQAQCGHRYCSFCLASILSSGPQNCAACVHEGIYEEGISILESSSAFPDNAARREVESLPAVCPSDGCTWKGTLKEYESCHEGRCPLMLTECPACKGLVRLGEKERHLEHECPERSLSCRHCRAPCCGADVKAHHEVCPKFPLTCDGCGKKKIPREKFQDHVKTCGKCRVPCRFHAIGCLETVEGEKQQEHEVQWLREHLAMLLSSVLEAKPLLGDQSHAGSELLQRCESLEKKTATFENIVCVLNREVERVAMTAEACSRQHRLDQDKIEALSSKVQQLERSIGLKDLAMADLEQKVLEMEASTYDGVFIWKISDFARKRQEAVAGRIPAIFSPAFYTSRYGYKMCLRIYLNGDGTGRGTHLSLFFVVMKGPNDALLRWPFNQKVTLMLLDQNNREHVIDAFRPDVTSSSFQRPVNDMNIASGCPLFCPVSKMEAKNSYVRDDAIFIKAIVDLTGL


What was measured:
[1] = biological target: T1, IKK2 (HA epitope-tagged, expressed from …)
[2] = biological target: T2, Receptor Interacting Protein RIP; assay: not described (data not shown)
[3] = biological target: T3, TNF Receptor Associated Factor 2 TRAF2; assay: not described (data not shown)
[4] = biological target: T4, IKK-γ subunit (endogenous, 293T cells) (human, UniProt Q9Y6K9 1-419); assay: co-immunoprecipitation with anti-IKK-γ from 293T lysates, immunoblot (FIG. 7C)
T4 construct: also called endogenous IKK-γ
T4 sequence (Q9Y6K9 whole entry): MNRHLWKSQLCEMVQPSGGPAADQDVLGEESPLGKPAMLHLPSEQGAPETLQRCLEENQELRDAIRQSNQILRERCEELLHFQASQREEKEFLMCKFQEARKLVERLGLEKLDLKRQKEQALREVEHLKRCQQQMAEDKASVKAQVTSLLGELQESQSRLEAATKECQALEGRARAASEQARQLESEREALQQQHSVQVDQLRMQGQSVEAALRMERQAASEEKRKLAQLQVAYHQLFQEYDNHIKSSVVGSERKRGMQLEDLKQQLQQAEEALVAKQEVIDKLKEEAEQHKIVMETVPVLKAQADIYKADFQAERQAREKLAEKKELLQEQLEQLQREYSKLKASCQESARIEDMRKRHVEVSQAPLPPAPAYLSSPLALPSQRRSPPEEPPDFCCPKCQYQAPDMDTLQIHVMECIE

| Binder | phosphorylation of recombinant IκBα in an in vitro kinase assay of anti-IKK1 immunoprecipitates [1] | binding result [2] | binding result [3] | binding result [4] |
| --- | --- | --- | --- | --- |
| IKK1 (FLAG epitope-tagged, expressed from pFLAG-IKK1) (protein) MERPPGLRPGAGGPWEMRERLGTGGFGNVCLYQHRELDLKIAIKSCRLELSTKNRERWCHEIQIMKKLNHANVVKACDVPEELNILIHDVPLLAMEYCSGGDLRKLLNKPENCCGLKESQILSLLSDIGSGIRYLHENKIIHRDLKPENIVLQDVGGKIIHKIIDLGYAKDVDQGSLCTSFVGTLQYLAPELFENKPYTATVDYWSFGTMVFECIAGYRPFLHHLQPFTWHEKIKKKDPKCIFACEEMSGEVRFSSHLPQPNSLCSLVVEPMENWLQLMLNWDPQQRGGPVDLTLKQPRCFVLMDHILNLKIVHILNMTSAKIISFLLPPDESLHSLQSRIERETGINTGSQELLSETGISLDPRKPASQCVLDGVRGCDSYMVYLFDKSKTVYEGPFASRSLSDCVNYIVQDSKIQLPIIQLRKVWAEAVHYVSGLKEDYSRLFQGQRAAMLSLLRYNANLTKMKNTLISASQQLKAKLEFFHKSIQLDLERYSEQMTYGISSEKMLKAWKEMEEKAIHYAEVGVIGYLEDQIMSLHAEIMELQKSPYGRRQGDLMESLEQRAIDLYKQLKHRPSDHSYSDSTEMVKIIVHTVQSQDRVLKELFGHLSKLLGCKQKIIDLLPKVEVALSNIKEADNTVMFMQGKRQKEIWHLLKIACTQSSARSLVGSSLEGAVTPQTSAWLPPTSAEHDHSLSCVVTPQDGETSAQMIEENLNCLGHLSTIIHEANEEQGNSMMNLDWSWLTE | a phosphorylated form of recombinant IκBα was easily detected |  |  |  |
| Molluscum contagiosum virus (MCV) MC160 protein (other, also called wild type MC160) MAHEPIPFSFLRNLLAELDASEHEVLRFLCRDVAPASKTAEDALRALQRRRLLTLSSMAELLCALRRFDVLKVRFGMTRECAGRLLGHGFLSQYRLQVAAINNMVGSEDLRVMCLCAGKLLPPSCTPRCLVDLVSALEDAGAISPQDVSVLVTLLHAVCRYDLSVALSAVAHGHMTVGVGTPVQDEPMDVLEVDDAEPMEATPACDEIGVVKLAGAASAGAPLADGAFAACTSAGKGEDLATSDLTDSEPEDSVFAVADPVYADVDLSMFVRANATADSSMFVNADAGADSSLVNADAGADSSLVNADAGADSSLVNAVADANSSLMRTTSACTDSEPEDSAGPSCAGMALSMFGRAKSVSSLLLRTKASY |  | no binding | no binding | no binding |
